Results on one molecule are retold here after paper PMC7419741 (QRB Discovery, 2020).

The assay deals with T1, IL8.
T1 construct: interleukin 8 (CXCL8), ligand of CXCR2
The experiment in a line: MST; 5 nM NT647-labelled receptor-Fc against a gradient of ligand; 1x PBS, 10 mM DTT, arginine at different concentrations; Monolith NT.115 pico, 25°C; data from the early T-Jump period; Kd model (law of mass action). As to conditions: both partners purified.

B1: CXCR2^QTY–Fc (Fc fusion)
chain: MEDFNMESDSFEDFWKGEDLSNYSYSSTLPPFLLDAAPCEPESLEINKYYTTTTYAQTYQQSQQGNSQTMQTTQYSRVGRSVTDTYQQNQAQADQQYAQTQPTWAASKVNGWIFGTFLCKTTSQQKETNYYSGTQQQACTSTDRYLAIVHATRTLTQKRYLVKYTCQSTWGQSQQQAQPTQQYRRTVYSSNVSPACYEDMGNNTANWRMQQRTQPQSYGYTTPQQTMQYCYGFTLRTLFKAHMGQKHRAMRTTYATTQTYQQCWQPYNQTQQADTLMRTQVIQETCERRNHIDRAQDATETQGTQHSCQNPQTYAFIGQKFRHGLLKILAIHGLISKDSLPKDSRPSFVGSSSGHTSTTL
modifications: NT647 fluorescent dye (Monolith NT protein labelling kit RED-NHS)
For B1, the Kd (as a rule, the concentration at which binding is half-saturated) came out at 60.3 ± 21 nM.
